Common to all, as to conditions: both partners purified
Assay [1] addresses T1, Ski2-like helicase 1 (Slh1), subunit of the RQT complex, wild type (yeast, UniProt P53327 1-1967).
T1 construct: Slh1 (Rqt2), ATP-dependent Ski2-like RNA helicase of yeast RQT, 1967 amino acids; NTC residues 217-1122 and CTC residues 1123-1967 modelled, N-terminal domain 1-217 not visible; Co-purified with Cue3 and Rqt4 as the trimeric RQT complex; Eluted by TEV cleavage of the FTP tag; also called Rqt2; Slh1-FTP; source: yeast strain overexpressing RQT components (Slh1-FTP, Cue3, Rqt4), purified …
Put plainly: cryo-EM structure; RQT-80S complex in conformation C1 (classical POST state); ubiquitinated CGN12-stalled disomes incubated 5 min at 25 °C with purified wild-type RQT and 1 mM ATP (post-splitting sample), vitrified; 80S refined to 2.4 Å, RQT locally refined to 3.5 Å.

Assay [2] concerns the target T1, Ski2-like helicase 1 (Slh1), subunit of …. The assay is described as follows: cryo-EM structure; pre-splitting samples: ubiquitinated CGN6-stalled disomes with wild-type RQT, or ubiquitinated CGN12-stalled disomes with K316R-RQT (RQT*), 1 mM ATP, 5 min at 25 °C; RQT seen on the lead ribosome of intact disomes.
The target in assay [3] is T2, Slh1-K316R, ATPase-deficient Walker A mutant of the N-terminal cassette, subunit of K316R-RQT (yeast, UniProt P53327 1-1967, K316R).
T2 construct: Slh1 (Rqt2) of yeast RQT, 1967 amino acids, with the ATPase-deficient mutation K316R; Probably made and tagged like the wild-type Slh1-FTP; also called K316R-Slh1; source: purified RQT complex (K316R-Slh1 mutant)
T2 sequence (P53327 whole entry K316R): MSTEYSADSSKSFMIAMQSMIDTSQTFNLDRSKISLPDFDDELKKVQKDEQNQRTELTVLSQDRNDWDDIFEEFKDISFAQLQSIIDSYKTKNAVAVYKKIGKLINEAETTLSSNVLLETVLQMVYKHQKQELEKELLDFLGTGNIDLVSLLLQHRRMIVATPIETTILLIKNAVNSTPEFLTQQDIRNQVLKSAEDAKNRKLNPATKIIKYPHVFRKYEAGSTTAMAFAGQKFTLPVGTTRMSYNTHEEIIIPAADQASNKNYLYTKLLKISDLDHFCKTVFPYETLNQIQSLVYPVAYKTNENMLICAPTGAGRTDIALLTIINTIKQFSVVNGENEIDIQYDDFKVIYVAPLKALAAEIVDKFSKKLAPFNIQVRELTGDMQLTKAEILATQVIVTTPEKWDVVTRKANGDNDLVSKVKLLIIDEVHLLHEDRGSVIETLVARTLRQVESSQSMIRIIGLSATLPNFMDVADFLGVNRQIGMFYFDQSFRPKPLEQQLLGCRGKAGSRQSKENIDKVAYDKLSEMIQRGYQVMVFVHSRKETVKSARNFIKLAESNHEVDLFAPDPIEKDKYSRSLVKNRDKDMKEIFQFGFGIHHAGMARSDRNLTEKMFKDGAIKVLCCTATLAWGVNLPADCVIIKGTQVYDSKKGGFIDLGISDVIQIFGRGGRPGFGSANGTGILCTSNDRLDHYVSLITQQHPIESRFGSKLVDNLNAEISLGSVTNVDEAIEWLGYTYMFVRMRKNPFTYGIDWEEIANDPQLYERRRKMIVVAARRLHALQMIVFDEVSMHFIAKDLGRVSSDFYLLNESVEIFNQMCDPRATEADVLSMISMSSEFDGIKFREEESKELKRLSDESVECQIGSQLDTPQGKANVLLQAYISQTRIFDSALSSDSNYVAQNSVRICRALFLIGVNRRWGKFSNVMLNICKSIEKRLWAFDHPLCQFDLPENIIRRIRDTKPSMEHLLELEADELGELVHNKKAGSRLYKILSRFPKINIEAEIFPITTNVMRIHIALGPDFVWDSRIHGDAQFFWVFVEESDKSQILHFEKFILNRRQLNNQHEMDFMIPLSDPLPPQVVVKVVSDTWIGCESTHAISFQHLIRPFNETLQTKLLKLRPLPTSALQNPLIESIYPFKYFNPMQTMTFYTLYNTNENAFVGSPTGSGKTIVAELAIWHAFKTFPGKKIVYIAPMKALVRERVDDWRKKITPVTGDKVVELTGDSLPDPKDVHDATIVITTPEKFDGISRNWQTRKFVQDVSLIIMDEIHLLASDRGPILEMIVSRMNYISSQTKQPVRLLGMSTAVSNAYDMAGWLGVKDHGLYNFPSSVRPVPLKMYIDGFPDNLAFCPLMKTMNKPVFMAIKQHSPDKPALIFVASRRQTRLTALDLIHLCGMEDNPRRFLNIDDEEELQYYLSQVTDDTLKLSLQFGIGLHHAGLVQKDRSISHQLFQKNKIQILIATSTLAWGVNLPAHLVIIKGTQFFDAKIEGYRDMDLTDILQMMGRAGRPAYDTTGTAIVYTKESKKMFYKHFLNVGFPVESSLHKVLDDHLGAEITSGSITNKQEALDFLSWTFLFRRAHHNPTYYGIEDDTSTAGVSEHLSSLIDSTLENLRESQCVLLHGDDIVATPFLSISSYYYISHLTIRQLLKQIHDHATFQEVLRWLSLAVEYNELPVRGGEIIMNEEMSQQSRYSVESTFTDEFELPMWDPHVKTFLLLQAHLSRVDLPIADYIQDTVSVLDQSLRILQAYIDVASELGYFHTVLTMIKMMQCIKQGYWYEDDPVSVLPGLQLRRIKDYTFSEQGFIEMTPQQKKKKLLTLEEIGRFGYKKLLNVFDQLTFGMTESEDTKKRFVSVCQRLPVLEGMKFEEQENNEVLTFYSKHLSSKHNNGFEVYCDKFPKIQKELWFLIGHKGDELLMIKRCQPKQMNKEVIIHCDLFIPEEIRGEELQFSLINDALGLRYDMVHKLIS
The description is as above.

T1 sequence (P53327 whole entry, the tested form may be a part, one chain of several): as the sequence (P53327 whole entry K316R) above, with R316K counted along it

B1: ribosomal protein uS5 of the 40S subunit (natural protein, UniProt P25443 1-254, looked up)
chain: MSAPEAQQQKRGGFGGRNRGRPNRRGPRNTEEKGWVPVTKLGRLVKAGKITTIEEIFLHSLPVKEFQIIDTLLPGLQDEVMNIKPVQKQTRAGQRTRFKAVVVVGDSNGHVGLGIKTAKEVAGAIRAGIIIAKLSVIPIRRGYWGTNLGQPHSLATKTTGKCGSVTVRLIPAPRGSGIVASPAVKKLLQLAGVEDVYTQSNGKTRTLENTLKAAFVAIGNTYGFLTPNLWAEQPLPVSPLDIYSDEASAQKKRF
notes: uS5 (Rps2), 40S ribosomal protein of yeast; its usually flexible N-terminus is seen as extra density; Stood in the assay as part of the whole 80S ribosome; source: endogenous, in ribosomes of a yeast cell-free translation extract; ribosome-nascent chain complexes purified (His-tag Dynabeads, sucrose gradient)
For the molecule B1, the binding result in assay [1] was “binds”.

B2: Cue3 (Rqt3), ubiquitin-binding CUE domain containing subunit of the RQT complex (natural protein, yeast, UniProt P53137 1-624, looked up)
chain: MLSRYNRVIEINGGNADISLPIVKFPPFKLRAQLIEKDPVVWLHLIETYVTYFEYLMQGANVELLDESTLDHLRLFLRTYLHEIADEEGKLLSLGINHDVSEQLYLLKGWIFSLIKKCGLLHLQIFGDSLWNLIKVYVRRNPDSIRGLIDGSLKPRINTQRVQLDKSYQVQQHLKQLIESGKFKRIDLRCVEDLLSAKSMQPNKFAENFFTANWIEILEALWAKGQGRGHKEARELIIISLFSVSADRLLKITKELGISNFETLALYPLLGTMLINEGVHKRLPDLKSKLLFLNLGGLSMDEGDHMSYPTSSGTEVNEEQLSALMELFPQFSKYQLSQTLLAYDNNIELVTNKIFEDPTIIEAFSREPAEEEVEPVSDGDNASFTEELSILDRGDSSKNKELDKKIISEGVPDELRNKTLTRALKLLYEADEDERDDTYDEADVNRSDPSKRIGLQEDEESYDTKDDSNEVRQDHNYHIVEAYLWNLLKEDPKLFERSKRGTKVRKTMKEMTSWSDEKIEGWCRMLERSPTRARLLEKKFMFKGNSKTGKTSYVHNRDSQNDGNVVKEQAKQKKSENIKKHEPQSTEQKKRQHAKNEKRKGARANHNRKKGHDKKLARAGNNAI
notes: Cue3 (Rqt3) of yeast RQT; only the N-terminal helical domain 1-297 modelled; CUE domain 298-360, four-helix bundle 468-541 and C-terminus 542-624 not visible
On to B2, for which the binding result in assay [2] and in assay [3] was “binds” each time.

B3: ribosomal protein uS3 of the 40S subunit (natural protein, UniProt P05750 1-240, looked up)
chain: MVALISKKRKLVADGVFYAELNEFFTRELAEEGYSGVEVRVTPTKTEVIIRATRTQDVLGENGRRINELTLLVQKRFKYAPGTIVLYAERVQDRGLSAVAQAESMKFKLLNGLAIRRAAYGVVRYVMESGAKGCEVVVSGKLRAARAKAMKFADGFLIHSGQPVNDFIDTATRHVLMRQGVLGIKVKIMRDPAKSRTGPKALPDAVTIIEPKEEEPILAPSVKDYRPAEETEAQAEPVEA
notes: uS3 (Rps3), 40S ribosomal protein of yeast, part of the stalled ribosome; Stood in the assay as part of the whole 80S ribosome or disome, which had been ubiquitinated in vitro with Hel2; source: endogenous, in ribosomes of a yeast cell-free translation extract; ribosome-nascent chain complexes purified (His-tag Dynabeads, sucrose gradient)
With B3, the binding result in assay [1] was “binds”.

B4: Rqt4, zinc-finger containing subunit of the RQT complex (natural protein, yeast)
chain: MTRKQAIDYAIKQVPQILPLEESDVKALCEQVLSTSSDDPEQIASKFLEFLGHEDLSFEFVMKFNELLNQNDKKEEKKTKNVHLEHTAPTSWKNESKQPTNNYINKKGDEKPKKLKDEKKSSTTRPTVQPSNQSTQSNPIKEKKEHRSKGKLQSLQEIDEAIKMLELRDSGSSKNCNCQGTRHPVFDIAPNCLHCGKVVCVIEGLNKGKCGHCHEQLISDNERTQMVEILNQEKNELNGSSSSLSNASNGANVPKKKTKTYKITSGMGKNLFAEQDKLFDFIERKRERERKRNEVLKLQEEKEESEAKERQASEHDHKAEENPELLAAQERLDRLLYFQDTSAERTKIIDNASDFDMNQEVGLWGSARERALALKKQQRNLRKWEKVEKERNGRREKYVVSMNIGSNGKVTMTEVPKDTENVIAGSDDDISDISDEEDISDLKHIHALKSEINTTKSLENLHLQSKAWDYERDKKQFDRPTYVKKNSDTAQQNRKTEEKAHDMQAYDLKSRVQVDQNADASVEQNILAVL
notes: Rqt4 of yeast RQT; two parts modelled (residues 171-219 and 323-381); PWI-like domain 1-74, helices flanking the zinc finger and the C-terminus not visible
For the molecule B4, the binding result in assay [2] and in assay [3] was “binds” each time.

B5: RACK1 (Asc1) of the 40S head (natural protein, UniProt P38011 1-319, looked up)
chain: MASNEVLVLRGTLEGHNGWVTSLATSAGQPNLLLSASRDKTLISWKLTGDDQKFGVPVRSFKGHSHIVQDCTLTADGAYALSASWDKTLRLWDVATGETYQRFVGHKSDVMSVDIDKKASMIISGSRDKTIKVWTIKGQCLATLLGHNDWVSQVRVVPNEKADDDSVTIISAGNDKMVKAWNLNQFQIEADFIGHNSNINTLTASPDGTLIASAGKDGEIMLWNLAAKKAMYTLSAQDEVFSLAFSPNRYWLAAATATGIKVFSLDPQYLVDDLRPEFAGYSKAAEPHAVSLAWSADGQTLFAGYTDNVIRVWQVMTAN
notes: RACK1 (Asc1), protein at the back side of the 40S head of the yeast ribosome; Stood in the assay as part of the whole 80S ribosome; source: endogenous, in ribosomes of a yeast cell-free translation extract; ribosome-nascent chain complexes purified (His-tag Dynabeads, sucrose gradient)
For B5, the binding result in assay [1] is listed as “binds”.
